The values that follow come from US20140087995A1 (published 2014).

For assay [1], the target named is T1, human calcitonin receptor (human, UniProt P30988 25-474).
T1 construct: whole, on cells; Membranes of BHK cells stably transfected with the human calcitonin receptor (Assay VII); also called hCTR; hCT
T1 sequence (looked up): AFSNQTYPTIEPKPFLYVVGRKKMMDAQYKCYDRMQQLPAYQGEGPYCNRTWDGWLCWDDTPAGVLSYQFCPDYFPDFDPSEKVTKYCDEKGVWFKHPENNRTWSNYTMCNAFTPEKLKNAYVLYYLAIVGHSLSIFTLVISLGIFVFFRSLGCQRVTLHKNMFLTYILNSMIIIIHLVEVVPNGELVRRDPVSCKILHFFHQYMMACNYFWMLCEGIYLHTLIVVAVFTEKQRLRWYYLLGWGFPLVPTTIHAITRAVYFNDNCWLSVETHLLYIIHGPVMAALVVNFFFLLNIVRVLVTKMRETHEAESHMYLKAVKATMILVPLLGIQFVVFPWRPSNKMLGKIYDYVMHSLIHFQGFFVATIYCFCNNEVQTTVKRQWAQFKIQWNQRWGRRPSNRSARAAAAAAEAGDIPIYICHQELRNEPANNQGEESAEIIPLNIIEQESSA
The assay can be described thus: ratio of IC50 at hCTR over IC50 at hAmylin-R (SPA competition assays). The procedure, abridged:
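IC₅₀ values were derived by one-site competition analysis of SPA counts. Cell membranes (35 ng/μL) with SPA beads were incubated with test compounds for 120 min at 25° C in Hepes buffer, pH 7.4, containing CaCl2, MgCl₂, OA and Tween20.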

For assay [2], the target named is T1, human calcitonin receptor. The assay can be described thus: SPA competition against 125I-calcitonin, membranes of BHK cells with human calcitonin receptor (Assay VII). The essentials: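 BHK hCTR membranes 35 ng/μL + SPA beads 0.05 mg/well; buffer 50 mM Hepes pH 7.4, 1 mM CaCl2, 5 mM MgCl₂, 0.1% OA, 0.02% Tween20. 120 min, 25° C., shaking. Scintillation count; IC50 by one-site binding competition.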

Numbered stars: 1 amine (or outer) side, 2 acyl side, 3 side chain; on linkers, the order of the positions; unused ones are H or OH. Bridge positions count the residues as written; N and C are the ends. Side chains are listed from the residue outwards. Ends that are not written are not given here. * marks the point of attachment. C20 diacid = O=C(O)CCCCCCCCCCCCCCCCCCC(=O)*; γGlu = O=C(O)[C@H](CCC(=O)[*:2])N[*:1]

B1: N^ε1-[(4S)-4-carboxy-4-(19-carboxynonadecanoylamino)butanoyl]-[Glu14,Arg17,Pro21,Pro27,His35]-h-amylin (peptide)
peptide: K([γGlu-C20 diacid])CNTATCATQRLAEFLRHSSPNFGAIPSSTNVGSHTY-NH2
modifications: disulfide 2-7; N-terminus assumed
SMILES: CC[C@H](C)[C@H](NC(=O)[C@H](C)NC(=O)CNC(=O)[C@H](Cc1ccccc1)NC(=O)[C@H](CC(N)=O)NC(=O)[C@@H]1CCCN1C(=O)[C@H](CO)NC(=O)[C@H](CO)NC(=O)[C@H](Cc1c[nH]cn1)NC(=O)[C@H](CCCNC(=N)N)NC(=O)[C@H](CC(C)C)NC(=O)[C@H](Cc1ccccc1)NC(=O)[C@H](CCC(=O)O)NC(=O)[C@H](C)NC(=O)[C@H](CC(C)C)NC(=O)[C@H](CCCNC(=N)N)NC(=O)[C@H](CCC(N)=O)NC(=O)[C@@H](NC(=O)[C@H](C)NC(=O)[C@@H]1CSSC[C@H](NC(=O)[C@@H](N)CCCCNC(=O)CC[C@H](NC(=O)CCCCCCCCCCCCCCCCCCC(=O)O)C(=O)O)C(=O)N[C@@H](CC(N)=O)C(=O)N[C@@H]([C@@H](C)O)C(=O)N[C@@H](C)C(=O)N[C@@H]([C@@H](C)O)C(=O)N1)[C@@H](C)O)C(=O)N1CCC[C@H]1C(=O)N[C@@H](CO)C(=O)N[C@@H](CO)C(=O)N[C@H](C(=O)N[C@@H](CC(N)=O)C(=O)N[C@H](C(=O)NCC(=O)N[C@@H](CO)C(=O)N[C@@H](Cc1c[nH]cn1)C(=O)N[C@H](C(=O)N[C@@H](Cc1ccc(O)cc1)C(N)=O)[C@@H](C)O)C(C)C)[C@@H](C)O
For orientation: IC50 means the concentration that inhibits the measured activity by half. B1: in assay [1], the “Ratio hCT/hAmylin binding” value stood at 26.4. Besides, the IC50 in assay [2] amounted to 26.1 nM.

B2: N^ε1-[(4S)-4-carboxy-4-(19-carboxynonadecanoylamino)butanoyl]-[Glu14,Arg17,Pro21,Pro27,Pro34,Arg35]-h-amylin (peptide)
peptide: K([γGlu-C20 diacid])CNTATCATQRLAEFLRHSSPNFGAIPSSTNVGPRTY-NH2
modifications: disulfide 2-7; N-terminus assumed
SMILES: CC[C@H](C)[C@H](NC(=O)[C@H](C)NC(=O)CNC(=O)[C@H](Cc1ccccc1)NC(=O)[C@H](CC(N)=O)NC(=O)[C@@H]1CCCN1C(=O)[C@H](CO)NC(=O)[C@H](CO)NC(=O)[C@H](Cc1c[nH]cn1)NC(=O)[C@H](CCCNC(=N)N)NC(=O)[C@H](CC(C)C)NC(=O)[C@H](Cc1ccccc1)NC(=O)[C@H](CCC(=O)O)NC(=O)[C@H](C)NC(=O)[C@H](CC(C)C)NC(=O)[C@H](CCCNC(=N)N)NC(=O)[C@H](CCC(N)=O)NC(=O)[C@@H](NC(=O)[C@H](C)NC(=O)[C@@H]1CSSC[C@H](NC(=O)[C@@H](N)CCCCNC(=O)CC[C@H](NC(=O)CCCCCCCCCCCCCCCCCCC(=O)O)C(=O)O)C(=O)N[C@@H](CC(N)=O)C(=O)N[C@@H]([C@@H](C)O)C(=O)N[C@@H](C)C(=O)N[C@@H]([C@@H](C)O)C(=O)N1)[C@@H](C)O)C(=O)N1CCC[C@H]1C(=O)N[C@@H](CO)C(=O)N[C@@H](CO)C(=O)N[C@H](C(=O)N[C@@H](CC(N)=O)C(=O)N[C@H](C(=O)NCC(=O)N1CCC[C@H]1C(=O)N[C@@H](CCCNC(=N)N)C(=O)N[C@H](C(=O)N[C@@H](Cc1ccc(O)cc1)C(N)=O)[C@@H](C)O)C(C)C)[C@@H](C)O
B2: the “Ratio hCT/hAmylin binding” value in assay [1] was found to be 38.6. Moreover, in assay [2], the IC50 is 6.3 nM.

B3: N^ε1-[(4S)-4-carboxy-4-(19-carboxynonadecanoylamino)butanoyl]-[His14,Arg17,Pro21,Pro27,Pro34,Pro37]-h-amylin (peptide)
peptide: K([γGlu-C20 diacid])CNTATCATQRLAHFLRHSSPNFGAIPSSTNVGPNTP-NH2
modifications: disulfide 2-7; N-terminus assumed
SMILES: CC[C@H](C)[C@H](NC(=O)[C@H](C)NC(=O)CNC(=O)[C@H](Cc1ccccc1)NC(=O)[C@H](CC(N)=O)NC(=O)[C@@H]1CCCN1C(=O)[C@H](CO)NC(=O)[C@H](CO)NC(=O)[C@H](Cc1c[nH]cn1)NC(=O)[C@H](CCCNC(=N)N)NC(=O)[C@H](CC(C)C)NC(=O)[C@H](Cc1ccccc1)NC(=O)[C@H](Cc1c[nH]cn1)NC(=O)[C@H](C)NC(=O)[C@H](CC(C)C)NC(=O)[C@H](CCCNC(=N)N)NC(=O)[C@H](CCC(N)=O)NC(=O)[C@@H](NC(=O)[C@H](C)NC(=O)[C@@H]1CSSC[C@H](NC(=O)[C@@H](N)CCCCNC(=O)CC[C@H](NC(=O)CCCCCCCCCCCCCCCCCCC(=O)O)C(=O)O)C(=O)N[C@@H](CC(N)=O)C(=O)N[C@@H]([C@@H](C)O)C(=O)N[C@@H](C)C(=O)N[C@@H]([C@@H](C)O)C(=O)N1)[C@@H](C)O)C(=O)N1CCC[C@H]1C(=O)N[C@@H](CO)C(=O)N[C@@H](CO)C(=O)N[C@H](C(=O)N[C@@H](CC(N)=O)C(=O)N[C@H](C(=O)NCC(=O)N1CCC[C@H]1C(=O)N[C@@H](CC(N)=O)C(=O)N[C@H](C(=O)N1CCC[C@H]1C(N)=O)[C@@H](C)O)C(C)C)[C@@H](C)O
In the case of B3, the “Ratio hCT/hAmylin binding” value in assay [1] is 1.2. Further, the IC50 in assay [2] was 0.157 nM.

B4: N^ε1-[(4S)-4-carboxy-4-(19-carboxynonadecanoylamino)butanoyl]-[Glu14,Arg17,Pro21,Pro27,Pro34,His35]-h-amylin (peptide)
peptide: K([γGlu-C20 diacid])CNTATCATQRLAEFLRHSSPNFGAIPSSTNVGPHTY-NH2
modifications: disulfide 2-7
As to B4, in assay [1], the “Ratio hCT/hAmylin binding” value worked out at 21.2. Further, in assay [2], the IC50 was 3.8 nM.

B5: N^ε1-[(4S)-4-carboxy-4-(19-carboxynonadecanoylamino)butanoyl]-[Glu14,Arg17,Pro21,Pro27,Pro34,Pro37]-h-amylin (peptide)
peptide: K([γGlu-C20 diacid])CNTATCATQRLAEFLRHSSPNFGAIPSSTNVGPNTP-NH2
modifications: disulfide 2-7; N-terminus assumed
SMILES: CC[C@H](C)[C@H](NC(=O)[C@H](C)NC(=O)CNC(=O)[C@H](Cc1ccccc1)NC(=O)[C@H](CC(N)=O)NC(=O)[C@@H]1CCCN1C(=O)[C@H](CO)NC(=O)[C@H](CO)NC(=O)[C@H](Cc1c[nH]cn1)NC(=O)[C@H](CCCNC(=N)N)NC(=O)[C@H](CC(C)C)NC(=O)[C@H](Cc1ccccc1)NC(=O)[C@H](CCC(=O)O)NC(=O)[C@H](C)NC(=O)[C@H](CC(C)C)NC(=O)[C@H](CCCNC(=N)N)NC(=O)[C@H](CCC(N)=O)NC(=O)[C@@H](NC(=O)[C@H](C)NC(=O)[C@@H]1CSSC[C@H](NC(=O)[C@@H](N)CCCCNC(=O)CC[C@H](NC(=O)CCCCCCCCCCCCCCCCCCC(=O)O)C(=O)O)C(=O)N[C@@H](CC(N)=O)C(=O)N[C@@H]([C@@H](C)O)C(=O)N[C@@H](C)C(=O)N[C@@H]([C@@H](C)O)C(=O)N1)[C@@H](C)O)C(=O)N1CCC[C@H]1C(=O)N[C@@H](CO)C(=O)N[C@@H](CO)C(=O)N[C@H](C(=O)N[C@@H](CC(N)=O)C(=O)N[C@H](C(=O)NCC(=O)N1CCC[C@H]1C(=O)N[C@@H](CC(N)=O)C(=O)N[C@H](C(=O)N1CCC[C@H]1C(N)=O)[C@@H](C)O)C(C)C)[C@@H](C)O
For B5, the “Ratio hCT/hAmylin binding” value in assay [1] turned out to be 0.5. Besides, the IC50 in assay [2] turned out to be 0.117 nM.

B6: N^ε1-[(4S)-4-carboxy-4-(19-carboxynonadecanoylamino)butanoyl]-[His14,Arg17,Pro21,Pro27,Pro31,Pro34]-h-amylin (peptide)
peptide: K([γGlu-C20 diacid])CNTATCATQRLAHFLRHSSPNFGAIPSSTPVGPNTY-NH2
modifications: disulfide 2-7; N-terminus assumed
SMILES: CC[C@H](C)[C@H](NC(=O)[C@H](C)NC(=O)CNC(=O)[C@H](Cc1ccccc1)NC(=O)[C@H](CC(N)=O)NC(=O)[C@@H]1CCCN1C(=O)[C@H](CO)NC(=O)[C@H](CO)NC(=O)[C@H](Cc1c[nH]cn1)NC(=O)[C@H](CCCNC(=N)N)NC(=O)[C@H](CC(C)C)NC(=O)[C@H](Cc1ccccc1)NC(=O)[C@H](Cc1c[nH]cn1)NC(=O)[C@H](C)NC(=O)[C@H](CC(C)C)NC(=O)[C@H](CCCNC(=N)N)NC(=O)[C@H](CCC(N)=O)NC(=O)[C@@H](NC(=O)[C@H](C)NC(=O)[C@@H]1CSSC[C@H](NC(=O)[C@@H](N)CCCCNC(=O)CC[C@H](NC(=O)CCCCCCCCCCCCCCCCCCC(=O)O)C(=O)O)C(=O)N[C@@H](CC(N)=O)C(=O)N[C@@H]([C@@H](C)O)C(=O)N[C@@H](C)C(=O)N[C@@H]([C@@H](C)O)C(=O)N1)[C@@H](C)O)C(=O)N1CCC[C@H]1C(=O)N[C@@H](CO)C(=O)N[C@@H](CO)C(=O)N[C@H](C(=O)N1CCC[C@H]1C(=O)N[C@H](C(=O)NCC(=O)N1CCC[C@H]1C(=O)N[C@@H](CC(N)=O)C(=O)N[C@H](C(=O)N[C@@H](Cc1ccc(O)cc1)C(N)=O)[C@@H](C)O)C(C)C)[C@@H](C)O
Consider B6, for which, in assay [1], the “Ratio hCT/hAmylin binding” value is 24.8. In assay [2], the IC50 stood at 2.04 nM.
